We go through 5 proteins from publication PMC10802681, “Structures of the essential efflux pump EfpA from Mycobacterium tuberculosis reveal the mechanisms of substrate transport and small-molecule inhibition” (Research Square, 2024).

Data set [1] deals with the molecule itself. The experiment in a line: cryo-EM structure.
Data set [2] concerns the molecule itself. Kind of data set: SEC + other: negative-stain EM.

Where a chain is given by its changes, count along the chain named. Names may count otherwise.

B1: MtEfpA (EfpA from Mycobacterium tuberculosis), wild type, with C-terminal GFP and Strep-Tag II (natural protein)
chain: MTALNDTERAVRNWTAGRPHRPAPMRPPRSEETASERPSRYYPTWLPSRSFIAAVIAIGGMQLLATMDSTVAIVALPKIQNELSLSDAGRSWVITAYVLTFGGLMLLGGRLGDTIGRKRTFIVGVALFTISSVLCAVAWDEATLVIARLSQGVGSAIASPTGLALVATTFPKGPARNAATAVFAAMTAIGSVMGLVVGGALTEVSWRWAFLVNVPIGLVMIYLARTALRETNKERMKLDATGAILATLACTAAVFAFSIGPEKGWMSGITIGSGLVALAAAVAFVIVERTAENPVVPFHLFRDRNRLVTFSAILLAGGVMFSLTVCIGLYVQDILGYSALRAGVGFIPFVIAMGIGLGVSSQLVSRFSPRVLTIGGGYLLFGAMLYGSFFMHRGVPYFPNLVMPIVVGGIGIGMAVVPLTLSAIAGVGFDQIGPVSAIALMLQSLGGPLVLAVIQAVITSRTLYLGGTTGPVKFMNDVQLAALDHAYTYGLLWVAGAAIIVGGMALFIGYTPQQVAHAQEVKEAIDAGEL
notes: Forms an antiparallel dimer in LMNG-CHS; predominantly monomeric in DDM-CHS; No tag cleavage is described; also called MtEfpA-cGFP; MtEfpA-GFP; not shown: GFP, C-terminal, kept
One may read the stoichiometry N as the number of molecules, sites or subunits per partner or assembly. Turning to B1, the “stoichiometry N” value in data set [1] came out at 2.

B2: MtEfpA G377D mutant (natural protein)
chain: B1 chain with G377D
B2: in data set [2], the binding result is given as “binds”.

B3: MtEfpA G502D mutant (natural protein)
chain: B1 chain with G502D
As for B3, the binding result in data set [2] is “binds”.

B4: MtEfpA T324D mutant (natural protein)
chain: B1 chain with T324D
B4: the binding result in data set [2] is reported as “binds”.

B5: MtEfpA L195D mutant (natural protein)
chain: B1 chain with L195D
As for B5, the binding result in data set [2] was “binds”.
